From article PMC8376927

What was measured:
[1] = target: DAPK2_RNTD, full-length human DAPK2 mutant with the C terminus S367STS370 changed to R367NTD370, autophosphorylated (human) (UniProt Q9UIK4); experiment: AUC; sedimentation velocity, DAPK2_RNTD alone at 25-350 μM; 20 °C, 42,000 rev./min; 50 mM HEPES-NaOH pH 7.5, 150 mM NaCl, 1 mM TCEP; dimer to monomers, KD from the ratios of the peak areas
[2] = target: FAM-ctDAPK2-pT369 peptide (FAM-RRRSSpTS) (human); experiment: fluorescence polarisation; as a1 but with 100 µM Fusicoccin A (FC-A); apparent KD
[3] = target: FAM-ctDAPK2-pT369 peptide (FAM-RRRSSpTS) (human); experiment: fluorescence polarisation; 14-3-3γ (160 µM and binary dilution series) incubated 1 h with 50 nM FAM-labelled peptide; 20 mM HEPES-NaOH pH 7.4, 150 mM NaCl, 0.1% Tween 20, 0.1% BSA; one-site-binding model; apparent KD

| Kd [1] | stoichiometry N [1] | Kd [2] | Kd [3] | Substance |
| --- | --- | --- | --- | --- |
| 100 µM | 2 |  |  | DAPK2_RNTD, full-length human DAPK2 mutant with the C terminus S367STS370 changed to R367NTD370, autophosphorylated (from UniProt Q9UIK4 1-370) (enzyme) |
|  |  | 4.4 nM | 114 nM | Human 14-3-3γ WT (from UniProt P61981 1-247) (natural protein) |
